B1: C11 [NbArc-C11] (VHH)
VHH: EVQLVESGGGLVQAGGSLRLSCAASGRTSGALNVAWYRQATGKEREYVARLWWNDGTTYYSDSVKGRFTISSDNAKKIVYLQMNRLKPDDTAIYYCAVRTPSSQTLYWGQGTQVTVSS
B2: E5 [NbArc-E5] (VHH)
VHH: EVQLQESGGGLVQAGGSLRLSCAASGSIFSGNAMGWYRQAPGKQREVVAVISAGNSSNYVDSVKGRFTISRDNAKNTVYLQMNSLKPEDTAVYYCNVVKRGPQWGMEWGKGTLVTVSS
B3: stargazin (Stg) peptide (peptide)
peptide: Ac-RIPSYRYR-NH2
notes: peptide from the cytosolic tail of stargazin (Stg), auxiliary subunit of AMPA receptors
B4: FLrArc-7A, full-length rat Arc with residues 113-119 mutated to Ala (natural protein, UniProt Q63053 1-396, looked up)
chain: MELDHMTTGGLHAYPAPRGGPAAKPNVILQIGKCRAEMLEHVRRTHRHLLTEVSKQVERELKGLHRSVGKLENNLDGYVPTGDSQRWKKSIKACLCRCQETIANLERWVKREAAAAAAAFYRLERWADRLESMGGKYPVGSEPARHTVSVGVGGPEPYCQEADGYDYTVSPYAITPPPAAGELPEQESVGAQQYQSWVPGEDGQPSPGVDTQIFEDPREFLSHLEEYLRQVGGSEEYWLSQIQNHMNGPAKKWWEFKQGSVKNWVEFKKEFLQYSEGTLSREAIQRELDLPQKQGEPLDQFLWRKRDLYQTLYVDAEEEEIIQYVVGTLQPKFKRFLRHPLPKTLEQLIQRGMEVQDGLEQAAEPSVTPLPTEDETEALTPALTSESVASDRTQPE
notes: Expressed from pHMGWA as His6-MBP fusion; Dimer by SAXS; also called poly-Ala rArc mutant; FLArc-7A; source: E. coli BL21(DE3)-RIPL, purified (details in S1 Protocol)
B5: full-length human Arc (FLhArc), capsid-containing preparation (natural protein, UniProt Q7LC44 1-396, looked up)
chain: MELDHRTSGGLHAYPGPRGGQVAKPNVILQIGKCRAEMLEHVRRTHRHLLAEVSKQVERELKGLHRSVGKLESNLDGYVPTSDSQRWKKSIKACLCRCQETIANLERWVKREMHVWREVFYRLERWADRLESTGGKYPVGSESARHTVSVGVGGPESYCHEADGYDYTVSPYAITPPPAAGELPGQEPAEAQQYQPWVPGEDGQPSPGVDTQIFEDPREFLSHLEEYLRQVGGSEEYWLSQIQNHMNGPAKKWWEFKQGSVKNWVEFKKEFLQYSEGTLSREAIQRELDLPQKQGEPLDQFLWRKRDLYQTLYVDADEEEIIQYVVGTLQPKLKRFLRHPLPKTLEQLIQRGMEVQDDLEQAAEPAGPHLPVEDEAETLTPAPNSESVASDRTQPE
notes: Activity-regulated cytoskeleton-associated protein (Arc), human, full length, without any mutations; High-molecular-weight forms and capsids with nucleic acid content (260/280 ratio >1); also called capsid hArc; wild-type full length hArc; source: E. coli BL21 CodonPlus, purified (NiNTA, TEV cleavage, Talon)
B6: NbArc-H11 (VHH)
VHH: EVQLLESGGGLVQAGDSLRLSCAASGRTFSAYAMGWFRQAPGKEREFVAAISWSGNSTYYADSVKGRFTISRDNAKNTVYLQMNSLKPEDTAIYYCAARKPMYRVDISKGQNYDYWGQGTQVTVSS
notes: From NanoTag Technologies, His6-TEV-Nb in pNT1433; long CDR3 with a P-x-Y motif (Pro103, Tyr105); also called Nb H11; sdAb H11; source: E. coli BL21(DE3), purified (NiNTA, TEV proteolysis, SEC); not shown: His6, N-terminal, cleaved
B7: NbArc-C11 (VHH)
VHH: B1 VHH
notes: From NanoTag Technologies, His6-TEV-Nb in pNT1433; also called Nb C11; sdAb C11; source: E. coli BL21(DE3), purified (NiNTA, TEV proteolysis, SEC); not shown: His6, N-terminal, cleaved
B8: NbArc-E5 (VHH)
VHH: B2 VHH
notes: From NanoTag Technologies, His6-TEV-Nb in pNT1433; also called Nb E5; sdAb E5; source: E. coli BL21(DE3), purified (NiNTA, TEV proteolysis, SEC); not shown: His6, N-terminal, cleaved
B9: NbArc-D4 (VHH)
VHH: EVQLVESGGGLVQAGGSLRLSCVASRGPFTTVTMGWYRQTPGRGRELVATINGGGGTRYADSVKGRFTISTDNAKNTVSLQMNSLKPEDTAVYYCNNDGYEWGVKKTYWGQGTQVTVSS
notes: From NanoTag Technologies, His6-TEV-Nb in pNT1433; also called sdAb D4; source: E. coli BL21(DE3), purified (NiNTA, TEV proteolysis, SEC); not shown: His6, N-terminal, cleaved
B10: NbArc-B5 (VHH)
VHH: EVQLQESGGGLVEAGGSLRLSCAASGHTSSTVNMAWYRQAPGKEREWVARVFWTDGATYYSDSVKGRFTISRDNTKQRVNLQMNNLKPEDTAIYYCALRAPSSQRLYWGQGTQVTVSS
notes: From NanoTag Technologies, His6-TEV-Nb in pNT1433; also called sdAb B5; source: E. coli BL21(DE3), purified (NiNTA, TEV proteolysis, SEC); not shown: His6, N-terminal, cleaved
B11: NbArc-B12 (VHH)
VHH: EVQLLESGGGLVQAGGSLRLSCVASRGPFTTVTMGWYRQTPGKQRESVAHITSDGRANYADSVKGRFTISKDNATNTVYLQMNNLKREDTAVYYCNTIVWPRGPWGQGTQVTVSS
notes: From NanoTag Technologies, His6-TEV-Nb in pNT1433; also called sdAb B12; source: E. coli BL21(DE3), purified (NiNTA, TEV proteolysis, SEC); not shown: His6, N-terminal, cleaved
B12: MBP-2rNT, N-terminal domain of rat Arc (residues 24-137) with the poly-Ala mutation, fused to His6-MBP (domain or fragment, UniProt Q63053 24-137, looked up)
chain: KPNVILQIGKCRAEMLEHVRRTHRHLLTEVSKQVERELKGLHRSVGKLENNLDGYVPTGDSQRWKKSIKACLCRCQETIANLERWVKREAAAAAAAFYRLERWADRLESMGGKY
notes: Insoluble without the MBP fusion partner; dimer by SAXS; also called NTD; rArc-NTD; source: E. coli BL21(DE3)-RIPL, purified (details in S1 Protocol); not shown: His6, N-terminal, kept; MBP, N-terminal, kept

Legend:
[1] = molecular target: rat Arc C-terminal domain as found in the crystals grown from FLrArc-7A (rArc-CTD) (rat, UniProt Q63053)
[2] = molecular target: FLrArc-7A, full-length rat Arc with residues 113-119 mutated to Ala (rat, UniProt Q63053, 113-119 MHVWREV to poly-Ala)
[3] = molecular target: B4; assay: ITC; 2 mM Stg peptide injected into 198 μM FLrArc-7A; 20 mM Tris-HCl pH 7.4, 150 mM NaCl; 1:1 binding model; conditions: both partners purified
[4] = molecular target: the molecule itself; assay: SEC-SAXS; FLrArc-7A alone and with Nb, SWING beamline, HPLC mode; 20 mM HEPES, 150 mM NaCl, 0.5 mM TCEP, pH 7.5 (rArc+H11 in 20 mM Tris, 150 mM NaCl, pH 7.4)
[5] = molecular target: the molecule itself; assay: SEC; analytical SEC; 2 nmol FLhArc (capsid-containing) with 1.5-fold molar excess of Nb; Superdex 200 Increase 10/300 GL; PBS; fractions on SDS-PAGE
[6] = molecular target: T1, human Arc C-terminal domain (hArc-CTD) (human, UniProt Q7LC44); assay: SEC-SAXS; hArc-CTD alone and with Nb, BM29 beamline (ESRF), HPLC mode; conditions: both partners purified
T1 construct: His tag with a linker holding a TEV site; kept in the pull-down; not shown: His6, N-terminal, kept

[7] = molecular target: the molecule itself; assay: SEC-SAXS; MBP-2rNT alone, SWING beamline, HPLC mode

B1
binding result [1]: binds

B2
binding result [2]: binds

B3
Kd [3]: 34.9 µM
dH [3]: -9.2 kcal/mol
stoichiometry N [3]: 1.09

B4
stoichiometry N [4]: 2

B5
binding result [5]: binds

B6
stoichiometry N [6]: 1

B7
stoichiometry N [6]: 1

B8
stoichiometry N [6]: 1

B9
stoichiometry N [6]: 1

B10
stoichiometry N [6]: 1

B11
stoichiometry N [6]: 1

B12
stoichiometry N [7]: 2

Source: PMC9173642 (PLoS ONE, 2022)
